Drawing on article PMC13342644 (2026), this text covers Kd for one molecule.

For one assay, the target named is NB1. Nature of the assay: ELISA.
The next assay has as its target NB2. Kind of assay: ELISA. Background: ELISA stands for enzyme-linked immunosorbent assay.

B1: Avi-tagged, biotinylated GDP-mannose transporter Vrg4 from Candida albicans (natural protein)
chain: MDSKHSTSSSSSGSLATRISNSGPISIAAYCLSSILMTVTNKYVLSGFSFNLNFFLLAVQSIVCIVTIGSLKSLNIITYRQFNKDEAKKWSPIAFLLVAMIYTSSKALQYLSIPVYTIFKNLTIILIAYGEVIWFGGKVTTMALSSFLLMVLSSVIAYYGDNAAVKSHDDAFALYLGYFWMLTNCFASAAFVLIMRKRIKLTNFKDFDTMYYNNLLSIPILLICSFIFEDWSSANVSLNFPADNRVTTITAMILSGASSVGISYCSAWCVRVTSSTTYSMVGALNKLPIALSGLIFFEAAVNFWSVSSIFVGFGAGLVYAVAKQKQQKEQSQQLPTTK
modifications: biotin (Avi tag biotinylated using BirA ligase)
B1: the values for the Kd in the assay with NB1 and with NB2 were 109 nM and 125 nM, respectively.
